Assay results as given in publication PMC8948881, “Molecular Properties of Human Guanylate Cyclase-Activating Protein 3 (GCAP3) and Its Possible Association with Retinitis Pigmentosa” (International Journal of Molecular Sciences, 2022).
Where a chain is given by its changes, count along the chain named. In names and notes the source's numbering stands.

T1: GC1 (GC-E, ROS-GC1, RetGC1) (Homo sapiens, UniProt Q02846)
T1 construct: gene GUCY2D
T1 sequence (Q02846 52-1103): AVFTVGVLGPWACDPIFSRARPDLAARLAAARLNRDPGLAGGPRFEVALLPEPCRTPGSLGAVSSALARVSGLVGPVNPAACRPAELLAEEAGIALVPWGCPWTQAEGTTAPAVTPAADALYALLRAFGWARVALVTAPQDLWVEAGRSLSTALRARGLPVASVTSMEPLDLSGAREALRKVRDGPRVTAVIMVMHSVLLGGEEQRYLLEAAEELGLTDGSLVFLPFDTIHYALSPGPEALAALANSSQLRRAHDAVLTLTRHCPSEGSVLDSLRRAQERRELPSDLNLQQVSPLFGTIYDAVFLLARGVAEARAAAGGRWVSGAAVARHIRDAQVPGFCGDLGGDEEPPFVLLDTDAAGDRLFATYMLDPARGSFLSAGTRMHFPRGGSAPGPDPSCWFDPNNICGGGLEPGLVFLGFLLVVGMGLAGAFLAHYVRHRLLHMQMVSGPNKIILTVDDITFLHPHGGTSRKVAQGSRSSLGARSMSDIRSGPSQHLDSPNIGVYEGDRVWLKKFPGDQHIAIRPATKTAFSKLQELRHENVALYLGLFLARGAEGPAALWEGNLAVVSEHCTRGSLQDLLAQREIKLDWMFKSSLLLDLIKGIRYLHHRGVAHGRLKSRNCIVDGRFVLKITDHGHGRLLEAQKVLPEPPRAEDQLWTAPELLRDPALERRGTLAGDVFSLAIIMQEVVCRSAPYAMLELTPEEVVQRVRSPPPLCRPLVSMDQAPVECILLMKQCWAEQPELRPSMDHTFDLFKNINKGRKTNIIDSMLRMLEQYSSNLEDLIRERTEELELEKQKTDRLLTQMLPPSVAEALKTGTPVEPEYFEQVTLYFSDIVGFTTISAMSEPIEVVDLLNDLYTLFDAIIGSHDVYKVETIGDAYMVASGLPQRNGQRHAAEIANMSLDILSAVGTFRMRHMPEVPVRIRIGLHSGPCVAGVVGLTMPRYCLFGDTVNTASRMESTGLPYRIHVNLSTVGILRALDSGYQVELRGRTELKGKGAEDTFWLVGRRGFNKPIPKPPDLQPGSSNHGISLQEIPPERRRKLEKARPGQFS
T1 sequence (O95843 2-209 partner): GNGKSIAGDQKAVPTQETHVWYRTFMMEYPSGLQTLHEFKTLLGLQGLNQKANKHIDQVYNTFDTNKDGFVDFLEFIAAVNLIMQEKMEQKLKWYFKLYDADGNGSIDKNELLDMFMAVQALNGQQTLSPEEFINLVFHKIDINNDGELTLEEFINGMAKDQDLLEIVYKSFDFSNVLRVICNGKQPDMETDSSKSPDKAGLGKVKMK

B1: non-myristoylated wild-type human GCAP3 (guanylate cyclase-activating protein 3) (natural protein, UniProt O95843-1 1-209, looked up)
chain: MGNGKSIAGDQKAVPTQETHVWYRTFMMEYPSGLQTLHEFKTLLGLQGLNQKANKHIDQVYNTFDTNKDGFVDFLEFIAAVNLIMQEKMEQKLKWYFKLYDADGNGSIDKNELLDMFMAVQALNGQQTLSPEEFINLVFHKIDINNDGELTLEEFINGMAKDQDLLEIVYKSFDFSNVLRVICNGKQPDMETDSSKSPDKAGLGKVKMK
notes: Cloned into a plasmid named pET11-E6S; also called nmWT; nmWT GCAP3
B2: non-myristoylated D101H variant of human GCAP3 (natural protein, UniProt O95843-1 1-209, looked up)
chain: B1 chain with D101H
notes: Variant found in a patient with retinitis pigmentosa; Cloned into a plasmid named pET11-E6S; also called nmD101H; nmD101H GCAP3
B3: myristoylated wild-type human GCAP3 (guanylate cyclase-activating protein 3) (natural protein, UniProt O95843-1 1-209, looked up)
chain: B1 chain
modifications: N-terminal myristoylation (degree of myristoylation 58.35%)
notes: Cloned into a plasmid named pET11-E6S; The sample is a mix of about 58% myristoylated and the rest non-myristoylated protein; also called mWT; mWT GCAP3

Columns and labels:
[1] = molecular target: T1, GC1 (GC-E, ROS-GC1, RetGC1); experiment: cGMP production by reversed-phase HPLC; assay type: biochemical; settings: GC1 membranes, 1 mM free Mg2+, low (<19 nM) or high (~30 µM) Ca2+, pH 7.4; basal and with mGCAP3 or mGCAP1
[2] = molecular target: the molecule itself; experiment: SEC; analytical SEC, Superose 12 10/300GL, ~40 µM protein loaded, 20 mM Tris-HCl pH 7.5, 150 mM KCl, 1 mM DTT, 500 µM EGTA (apo), 25 °C; apparent MM from a calibration curve
[3] = molecular target: the molecule itself; experiment: SEC; analytical SEC, Superose 12 10/300GL, ~40 µM protein loaded, 20 mM Tris-HCl pH 7.5, 150 mM KCl, 1 mM DTT, 1 mM Mg2+ and 500 µM Ca2+, 25 °C; apparent MM from a calibration curve

| Molecule | stoichiometry N [2] | also measured |
| --- | --- | --- |
| Nc1nc2c(ncn2[C@@H]2O[C@@H]3COP(=O)(O)O[C@H]3[C@H]2O)c(=O)[nH]1 [cGMP] |  | cGMP production by reversed-phase HPLC [1]: The production of cGMP was analyzed by reversed phase HPLC |
| B1 | 2 |  |
| B2 |  | stoichiometry N [3]: 2 |
| B3 | 2 |  |
